# According to patent US12692310B2, “ASIC1 channel antagonist antibody” (ShanghaiTech University, priority 2019, dated 2026):
# Positions count from the first letter of the chain named.
# B1: ASC06-IgG1: ASC06 antibody converted into a full length IgG1 form (antibody, V domains shown)
# VH: QVQLQQSGGGLVQPGGSLRLSCAASGFTFSSYAMSWVRQAPGKGLEWVSAISGSGGSTYYADSVKGRFTISRDNSKNTLYLQMNSLRAEDTAVYYCAKDSFYGYSKGDWGQGTLVTVSS
# VL: QSALTQPASVSGSPGQSITISCTGTSSDVGAYNYVSWYQQQPGKAPKLMIYGVSNRPSGVSNRFSGSKSGNAASLTISGLQAEDEADYYCSSYTSSSTYVFGTGTKLTVLG
# What was measured:
# [1] = target: T1, hASIC1a N322A (Homo sapiens, UniProt P78348, N322A); experiment: FACS binding to alanine mutant hASIC1a-eYFP on CHO-K1 cells; type: cell-based; settings: vs WT hASIC1a
# T1 construct: expressed in transfected cells; host or cells: CHO-K1, transient
# T1 sequence (P78348 1-528 N322A): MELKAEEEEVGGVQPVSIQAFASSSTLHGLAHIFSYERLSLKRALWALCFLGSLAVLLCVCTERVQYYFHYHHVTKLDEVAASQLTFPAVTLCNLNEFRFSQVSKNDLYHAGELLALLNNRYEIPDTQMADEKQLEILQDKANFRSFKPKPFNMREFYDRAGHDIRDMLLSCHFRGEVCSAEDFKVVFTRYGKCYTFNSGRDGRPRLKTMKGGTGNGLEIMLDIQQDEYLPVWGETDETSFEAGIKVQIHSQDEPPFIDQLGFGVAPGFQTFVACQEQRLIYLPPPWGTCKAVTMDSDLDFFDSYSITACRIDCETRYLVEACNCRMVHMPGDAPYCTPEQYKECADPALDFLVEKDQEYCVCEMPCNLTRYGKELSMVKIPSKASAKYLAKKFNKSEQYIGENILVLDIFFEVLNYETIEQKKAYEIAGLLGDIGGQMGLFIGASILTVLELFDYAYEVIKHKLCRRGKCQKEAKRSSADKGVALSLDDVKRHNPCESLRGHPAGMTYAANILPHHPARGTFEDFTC
# Method: (§1) To confirm the role of these amino acids, alanine mutagenesis was performed and four amino acids are very important for antibody binding were identified. Plasmid encoding single amino acid mutation of hASIC1a-eYFP was constructed and transient transfected into CHO-K1 cells. FACS binding assay was then performed to test whether the ASC06-IgG1 still binds to cell surface expressing mutated hASIC1a.
# [2] = target: T2, hASIC1a Y318A (Homo sapiens, UniProt P78348, Y318A); experiment: as above; type: cell-based; settings: vs WT hASIC1a
# T2 construct: expressed in transfected cells; host or cells: CHO-K1, transient
# T2 sequence (P78348 1-528 Y318A): T1 sequence (P78348 1-528 N322A) with Y318A, A322N
# Method: as §1
# [3] = target: T3, hASIC1a Y360A (Homo sapiens, UniProt P78348, Y360A); experiment: as above; type: cell-based; settings: vs WT hASIC1a
# T3 construct: expressed in transfected cells; host or cells: CHO-K1, transient
# T3 sequence (P78348 1-528 Y360A): T1 sequence (P78348 1-528 N322A) with A322N, Y360A
# Method: as §1
# [4] = target: T4, hASIC1a-eYFP (Homo sapiens, UniProt P78348); experiment: Western blot and immunoprecipitation of 6H7 cell lysate; type: binding; design: expressed in transfected cells
# T4 sequence (P78348 1-528): T1 sequence (P78348 1-528 N322A) with A322N
# Description: To characterize the interaction between ASC06-IgG1 and hASIC1a, the 6H7 stable line expressing the hASIC1a-eYFP fusion protein was used in a Western blot analysis. […] In contrast, both the commercial goat polyclonal anti-ASIC1 antibody and the anti-eYFP antibody were able to detect the hASIC1a-eYFP protein in the 6H7 lysate at molecular mass around 100 kDa (FIG. 13A and data not shown).
# ASC06-IgG1 was used to pull down native hASIC1a-YFP in cell lysate followed by anti-eYFP Western blot for hASIC1a-YFP detection.
molecule,measurement,setting,value
B1,binding to hASIC1a N322A mutation,[1],decrease
same,binding to hASIC1a Y318A mutation,[2],abolished
same,binding to hASIC1a Y360A mutation,[3],decrease
same,recognition of hASIC1a in cell lysate in Western blot,[4]; denatured lysate of 6H7 cells,could not recognize
same,"pull down of native hASIC1a-YFP, anti-eYFP Western blot",[4]; immunoprecipitation,recognized hASIC1a in a conformation-dependent manner
